# Data reported in PMC6117352, “Multidomain architecture of estrogen receptor reveals interfacial cross-talk between its DNA-binding and ligand-binding domains” (Nature Communications, 2018).
# B1: 6-FAM ERE-DNA (dsDNA)
# DNA 1: TAGGTCACAGTGACCTGCG
# DNA 2: CGCAGGTCACTGTGACCTA
# B2: human estrogen receptor alpha multidomain segment containing both DBD and LBD (residues E181–P552), hERα^CDE (domain or fragment, UniProt P03372 181-552, looked up)
# chain: ETRYCAVCNDYASGYHYGVWSCEGCKAFFKRSIQGHNDYMCPATNQCTIDKNRRKSCQACRLRKCYEVGMMKGGIRKDRRGGRMLKHKRQRDDGEGRGEVGSAGDMRAANLWPSPLMIKRSKKNSLALSLTADQMVSALLDAEPPILYSEYDPTRPFSEASMMGLLTNLADRELVHMINWAKRVPGFVDLTLHDQVHLLECAWLEILMIGLVWRSMEHPGKLLFAPNLLLDRNQGKCVEGMVEIFDMLLATSSRFRMMNLQGEEFVCLKSIILLNSGVYTFLSSTLKSLEEKDHIHRVLDKITDTLIHLMAKAGLTLQQQHQRLAQLLLILSHIRHMSNKGMEHLYSMKCKNVVPLYDLLLEMLDAHRLHAP
# notes: Cloned into pMCSG7 and the His-tag removed with TEV protease; In the assays it carried estradiol (E2) and ERE-DNA; also called hERα^CDE–DNA-E2 complex; protein part of hERα^complex; source: E. coli Rosetta2(DE3)pLysS, expressed in the presence of estradiol, purified (TALON resin, TEV cleavage, Superdex 200)
# Assays:
# hERαCDE W393A = hERαCDE W393A (Homo sapiens, UniProt P03372 181-552, W393A); test: fluorescence anisotropy; E2, TIF2 coactivator peptide; 20 nM DNA; FA: 10 mM CHES pH 9.5, 50 mM KCl, 50 mM NaCl, 4 mM MgCl2, 50 mM arginine, 50 mM glutamic acid, 5 mM TCEP, 5% glycerol, 10 uM ZnCl2, 10 uM E2; 20 nM DNA, 10 min; temperature not stated; conditions: protein: recombinant; tags: His-tag (pMCSG7), removed by TEV; chain copies: 2; label: 5' 6-FAM (strands described as 5'-labeled); blunt, 19 bp as printed (text says 18-bp)
# hERαCDE Y191H = hERαCDE Y191H (Homo sapiens, UniProt P03372 181-552, Y191H); test: as above; conditions: protein: recombinant; tags: His-tag (pMCSG7), removed by TEV; chain copies: 2; label: 5' 6-FAM (strands described as 5'-labeled); blunt, 19 bp as printed (text says 18-bp)
# hERαCDE WT = hERαCDE WT (Homo sapiens, UniProt P03372 181-552); test: fluorescence anisotropy; E2, TIF2 coactivator peptide; 20 nM DNA; apparent Kd; FA: 10 mM CHES pH 9.5, 50 mM KCl, 50 mM NaCl, 4 mM MgCl2, 50 mM arginine, 50 mM glutamic acid, 5 mM TCEP, 5% glycerol, 10 uM ZnCl2, 10 uM E2; 20 nM DNA, 10 min; temperature not stated; conditions: protein: recombinant; tags: His-tag (pMCSG7), removed by TEV; chain copies: 2; label: 5' 6-FAM (strands described as 5'-labeled); blunt, 19 bp as printed (text says 18-bp)
# [1] = target: the molecule itself; test: SEC-SAXS + hydroxyl radical protein footprinting, docked models scored against both data sets; hERα^CDE eluted from Superdex 200 with E2, ERE–DNA and TIF2 peptide; 10 mM CHES pH 9.5, 50 mM NaCl, 50 mM KCl; footprinting at 2 µM protein, pH 9.5
# Chain of hERαCDE W393A (P03372 181-552 W393A): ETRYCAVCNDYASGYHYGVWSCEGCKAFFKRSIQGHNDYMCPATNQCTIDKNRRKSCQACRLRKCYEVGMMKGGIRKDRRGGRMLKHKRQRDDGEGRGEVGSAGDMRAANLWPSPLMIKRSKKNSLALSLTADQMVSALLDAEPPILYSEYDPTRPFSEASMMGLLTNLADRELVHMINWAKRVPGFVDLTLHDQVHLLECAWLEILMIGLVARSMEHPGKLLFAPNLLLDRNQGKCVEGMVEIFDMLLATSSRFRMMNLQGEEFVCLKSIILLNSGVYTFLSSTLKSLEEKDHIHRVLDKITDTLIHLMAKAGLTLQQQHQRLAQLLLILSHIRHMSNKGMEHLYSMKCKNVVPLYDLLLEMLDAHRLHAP
Binder,Kd (hERαCDE W393A),Kd (hERαCDE Y191H),Kd (hERαCDE WT),binding result [1]
B1,10.8 nM,3.2 nM,9.2 nM,
B2,,,,binds
